Test results: paper PMC9194504, “Chondroitin Sulfates Control Invasiveness of the Basal-Like Breast Cancer Cell Line MDA-MB-231 Through ROR1” (Frontiers in Oncology, 2022)

Molecular target: T1, Recombinant human ROR1-Fc chimera (human, UniProt Q01973 30-406)
T1 construct: receptor tyrosine kinase-like orphan receptor 1 (ROR1), human; recombinant ROR1-Fc chimera, R&D Systems Cat. No. 9490-RO; also called receptor tyrosine kinase-like orphan receptor 1; recombinant ROR1; source: bought: R&D Systems (Cat. No. 9490-RO)
T1 sequence (Q01973 30-406, change not shown): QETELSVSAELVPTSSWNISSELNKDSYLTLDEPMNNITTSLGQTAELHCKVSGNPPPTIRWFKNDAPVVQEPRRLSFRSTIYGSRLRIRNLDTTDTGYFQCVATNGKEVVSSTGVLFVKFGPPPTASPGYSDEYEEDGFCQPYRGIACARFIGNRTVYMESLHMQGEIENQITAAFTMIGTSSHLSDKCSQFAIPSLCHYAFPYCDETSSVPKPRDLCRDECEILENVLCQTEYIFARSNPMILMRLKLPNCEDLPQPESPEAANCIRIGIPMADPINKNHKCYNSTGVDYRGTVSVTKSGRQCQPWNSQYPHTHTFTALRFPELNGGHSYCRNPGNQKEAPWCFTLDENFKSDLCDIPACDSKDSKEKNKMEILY
Test: SPR; Biacore X100; ROR1-Fc amine-coupled on a CM5 chip (~3,200 RU); protein analyte premixed with CS-E (CS-E:protein molar ratio 7:1), 30 μl/min, 120 s, dissociation 130 s, 25°C; 50 mM Tris-HCl pH 7.5
Details: both partners purified

B1: recombinant human DKK1 (ligand, UniProt O94907 32-266, looked up)
chain: TLNSVLNSNAIKNLPPPLGGAAGHPGSAVSAAPGILYPGGNKYQTIDNYQPYPCAEDEECGTDEYCASPTRGGDAGVQICLACRKRRKRCMRHAMCCPGNYCKNGICVSSDQNHFRGEIEETITESFGNDHSTLDGYSRRTTLSSKMYHTKGQEGSVCLRSSDCASGLCCARHFWSKICKPVLKEGQVCTKHRRKGSHGLEIFQRCYCGEGLSCRIQKDHHQASNSSRLHTCQRH
notes: Dickkopf-1 (DKK1), human, recombinant, R&D Systems Cat. No. 5439-DK/CF; also called Dickkopf-1; source: bought: R&D Systems (Cat. No. 5439-DK/CF)
Does B1 bind?
Result: binds
